# Test system: MS2 coat protein
# Experiment: apparent KD of MS2 coat protein; designed switch direction (-1 OFF switch, 1 ON switch): 1; higher = weaker reporter binding
# Outline: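 For each design, the apparent KD is the median over clusters of curves fitted to normalised cluster fluorescence. Clusters held RNA switches with common flanks, transcribed on Illumina chips by stalled E. coli RNA polymerase. These were titrated with SNAP-549-labelled MS2 coat protein, doubling from 0.7 or 1.5 nM to 3 µM, without input, with 200 uM small-molecule ligand, or with an oligonucleotide input.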
# [1] = Eterna round: R95, input ligand: microRNA oligo, concentration not stated
# [2] = input ligand: microRNA oligo, concentration not stated
Sequence,"apparent KD of MS2 coat protein (Eterna round: R95, input ligand: FMN 200 uM)",apparent KD of MS2 coat protein [1],"apparent KD of MS2 coat protein (Eterna round: R95, input ligand: none)",apparent KD of MS2 coat protein (input ligand: FMN 200 uM),apparent KD of MS2 coat protein [2],apparent KD of MS2 coat protein (input ligand: none)
GCAGUACUAGCAGAGGAUAUGUCGAUAACGACAUGAGGAUCACCCAUGUGUACGGAAGUACUCAGACAGAAGGCUGAGUACUGCU [Same State 2 - Hyphema v.2] (puzzle: Same State 2),15.2 nM,30.2 nM,41.8 nM,–,–,–
GCAUCACAUGAGGAUCACCCAUGUCUUCGGAGCGGAGGAUAUGGUCACUGUAAACAGUGGCCAGAAGGCUGGAUGC [SS1 - Son of Teenbexe v3] (puzzle: Same State 1),–,26 nM,–,–,–,–
"GCCAACGCAUGAGGAUAUGGCACCUUAUUGGUGCCAGAAGGCAUGUCUAUUGACAUGAGGAUCACCCAUGUAUUAUAGUUGGCA [Fiskers NG1ss - 15] (Eterna round: R96, puzzle: Same State NG 1)",–,–,–,114 nM,369 nM,882 nM
"GCCGCGUUUCGCGCCUACAUGAGGAUCACCCAUGUUUGUAGGCAGGAUAUCGCUUGCUUUGCGGGCGAGAAGGGCUGUUGUGGC [salish99_SSNG3_R04_018] (Eterna round: R96, puzzle: Same State NG 3)",–,–,–,36.8 nM,56.8 nM,51.6 nM
"GCCGGCUGGUGAGGAUAUGGCGCCUUGUUGGUGCCAGAAGGCAUGUCUAUUGACAUGAGGAUCACCCAUGUGUUGUCGUUGGCG [salish99_SSNG1_r04_612] (Eterna round: R96, puzzle: Same State NG 1)",–,–,–,536 nM,108 nM,183 nM
"GCCGUAUAAACAUGAGGAUCACCCAUGUGCGCGAGAGCGAAUGAGGAUAUCGAUGGGUUUCCCGUCGAGAAGGCGUGGGUCGGC [JL SSNG3 3.96] (Eterna round: R96, puzzle: Same State NG 3)",–,–,–,37.7 nM,76.4 nM,96.3 nM
"GCGAAGAGGUAAGGAUAUUCAUGGCGGAGACAUGAGGAUCACCCAUGUAGGAGACGAAAUCUAAGGGAGAAGGUACCAGGACGC [AK SSNG2-V2-14] (Eterna round: R96, puzzle: Same State NG 2)",–,–,–,112 nM,147 nM,321 nM
"GCGAGCGUACUUGCAACAUGAGGAUCACCCAUGUUAACUGGACAGGAUAUGGUACCGUUUCGGUACCAGAAGGGUUCCUCCAUG [JL SSNG3 3.61] (Eterna round: R96, puzzle: Same State NG 3)",–,–,–,160 nM,134 nM,135 nM
"GCGGAACCUAACAUGAGGAUCACCCAUGUUCCGGAAACGGCACAGGAUAUCUGUCCGAAAAGGUCAGAGAAGGGUGAAAACCGC [Fiskers NG3ss - 95] (Eterna round: R96, puzzle: Same State NG 3)",–,–,–,131 nM,307 nM,390 nM
"GCGGAACGGGCCGACAUGAGGAUCACCCAUGUGGCCUCAUGUAAGGAUAUCGGGAAGAAGAAAACCGAGAAGGUACGGUGACGC [AK SSNG3-V2-31] (Eterna round: R96, puzzle: Same State NG 3)",–,–,–,47.2 nM,15.6 nM,107 nM
"GCGUUUAACGUAGGAUAUCGAGCUACAUGAGGAUCACCCAUGUCUUUGUAAAGUUUUUUUAAUUCCGAGAAGGACGUAUUGCAU [JR_SSNG2_Sub073] (Eterna round: R96, puzzle: Same State NG 2)",–,–,–,27.1 nM,27.2 nM,35.9 nM
"GCUACCAUUGAAGCCAACAUGAGGAUCACCCAUGUAUGUUGGUAGGAUAUCGAUUGCUUUGCGAUCGAGAAGGGCUAAGGUAGC [JL SSNG3 1.28] (Eterna round: R96, puzzle: Same State NG 3)",–,–,–,52.6 nM,48 nM,45.1 nM
"GCUAGAAAUAAAGCCAACAUGAGGAUCACCCAUGUAUGUUGGUAGGAUAUCGUUUGCAAAGCAAACGAGAAGGGCUAAUCUAGC [Mat - Same State NG 3 - JL Mod - D65] (Eterna round: R96, puzzle: Same State NG 3)",–,–,–,76.4 nM,63.8 nM,69.8 nM
"GCUAGAAUAAAUGCCUACAUGAGGAUCACCCAUGUAUGUAGGCAGGAUAUCGUUUGCAAAGCAAACGAGAAGGGCCUUACUAGC [Mat - Same State NG 3 - JL Mod - D29] (Eterna round: R96, puzzle: Same State NG 3)",–,–,–,21.5 nM,43 nM,55.7 nM
"GCUAGAAUCAAAGCCAACAUGAGGAUCACCCAUGUAUGUUGGUAGGAUAUCGUUUGCUUUGCAAACGAGAAGGACCAAACUAGC [SameState NG3 #1] (Eterna round: R96, puzzle: Same State NG 3)",–,–,–,30.2 nM,75.3 nM,87.1 nM
"GCUAGAAUUAAAGCCAACAUGAGGAUCACCCAUGUAUGUUGGCAGGAUAUCGUUUGCUUUGCAAACGAGAAGGGCUAAACUAGC [JL SSNG3 1.02] (Eterna round: R96, puzzle: Same State NG 3)",–,–,–,114 nM,121 nM,182 nM
"GCUAGAAUUAAAGCCAACAUGAGGAUCACCCAUGUAUGUUGGUAGGAUAUCGUUUGCUUUGCAAACGAGAAGGGCUAAACUAGC [JL SSNG3 1.06] (Eterna round: R96, puzzle: Same State NG 3)",–,–,–,78.3 nM,58.5 nM,73.1 nM
"GCUCGAAUCACAGCCAACAUGAGGAUCACCCAUGUAUGUUGGUAGGAUAUCGUUUCUAAGGGAAACGAGAAGGGCCGAACGAGC [SameState NG3 #10] (Eterna round: R96, puzzle: Same State NG 3)",–,–,–,171 nM,151 nM,163 nM
"GCUCGACGUAUGGCCUACAUGAGGAUCACCCAUGUGACUGGGCAGGAUAUCUAGAUGCAGAAUGUAGAGAAGGGCCCGUCGAGC [SameState NG3 #48] (Eterna round: R96, puzzle: Same State NG 3)",–,–,–,244 nM,74 nM,194 nM
"GCUCGAUGAGCGGUUUACAUGAGGAUCACCCAUGUACAUGGGCAGGAUAUUUACGUGCUUUGUGUAGAGAAGGGCCCAUCGAGC [SameState NG3 #74] (Eterna round: R96, puzzle: Same State NG 3)",–,–,–,92.4 nM,280 nM,244 nM
"GCUGGAAAUCACAUGAGGAUCACCCAUGUUCCGGAAACGGCACAGGAUAUCUGUCCGAAAAGGUCAGAGAAGGGUGAAACCAGC [Fiskers NG3ss - 85] (Eterna round: R96, puzzle: Same State NG 3)",–,–,–,303 nM,56.1 nM,105 nM
"GCUUCGGCGGUAGGAUAUCUAGGAUAUGGGAAGAGCUAAGCUUGGAAGUCACUUCACCCAGAAGGAGAGAAGGACACCUUCGGG [pwkr ssNG2 2FMN + F9.4] (Eterna round: R96, puzzle: Same State NG 2)",–,–,–,230 nM,3.87 nM,47 nM
